Data on 2 substances can be found in PMC9451086.

This test concerns the target Importin-α1 (UniProt P52292). The test can be described thus: proximity ligation assay. As to conditions: PLC3 cells electroporated with HEV-p6 RNA, 18 h.p.e; 12 fields of cells, mean ± S.D.; parent: est. 5.3; read off a plot.

Consider “HEV ORF2 capsid protein, wild type (genotype 3 Kernow C-1 p6 strain) R28A; R29A; R30A; R32A; R33A”, for which the response amounted to 1.1 spot/cell.
The value for “HEV ORF2 capsid protein, wild type (genotype 3 Kernow C-1 p6 strain) P25R; S26R; G27R” was 4.8 spot/cell.
